Test [1] deals with R163W hCCS (human) (UniProt O14618). Put plainly: SEC; GE Superdex 200 10/300, TBS with 1 mM DTT, 0.5 ml/min, 500 μl loaded; high concentrations (series from 26 up to 918 μM before the column); monomer to dimer. (SEC sorts molecules by how far they enter the pores of the column.)
For test [2] the target is unchanged. Put plainly: SEC-MALS; Agilent BioSEC-3 column, 20 mM Tris-HCl, 150 mM NaCl (TBS) with 1 mM DTT, 20 °C; monomer to dimer.
Test [3] deals with copper chaperone for SOD1 (hCCS), wild-type, zinc metalated (human) (UniProt O14618). Kind of test: SEC; non-reducing time course with metal apo SOD1: SOD1 reduced and desalted into oxygen purged TBS, mixed with hCCS (copper apo/zinc holo or copper(I) loaded), incubated at 20 °C (8 minutes to 20 hours), then SEC.
Test [4] shares this target. Kind of test: SEC-MALS; Agilent BioSEC-3 column, 20 mM Tris-HCl, 150 mM NaCl (TBS) with 1 mM DTT, 20 °C; monomer to dimer.
For test [5] the target is unchanged. Put plainly: SEC; reducing conditions as above but with metal apo (zinc deficient) SOD1, mixed 1:1 with Zn-hCCS; Agilent BioSEC-3, TBS with 1 mM DTT, 20 °C.

The record followed here is article PMC4901319.

For “R163W hCCS (from UniProt O14618 1-274) (natural protein)”, the stoichiometry N with R163W hCCS (human) [1] and in the test with R163W hCCS (human) [2] was 2 each time.
With “copper chaperone for SOD1 (hCCS), wild-type, zinc metalated (from UniProt O14618 1-274) (natural protein)”, the stoichiometry N in test [3], in test [4] and in test [5] was 2 each time.

The stoichiometry N is a count of units in the complex or per binding partner.
